Clotting time (naPTT) after 120 min incubation with AT, clotting time (naPTT), control with AT but without incubation and factor of increase in clotting time (naPTT) after 120 min incubation with AT data for 1 substance are collected here from patent publication EP2032607B1.

Test [1] concerns the target activated FIX-albumin fusion protein with non-cleavable linker 980/797 (human) (UniProt P00740). The test is described as follows: cell-based or functional assay.
The target in test [2] is activated FIX-albumin fusion protein with cleavable linker 1088/797 (human) (UniProt P00740). The test is described as follows: cell-based or functional assay.

In test [1], “antithrombin III (from UniProt P01008 33-464)” came in with a clotting time (naPTT) after 120 min incubation with AT of 411 s and a clotting time (naPTT), control with AT but without incubation of 196 s. Moreover, in test [2], the clotting time (naPTT) after 120 min incubation with AT turned out to be 540 s; the clotting time (naPTT), control with AT but without incubation came out at 210 s; the factor of increase in clotting time (naPTT) after 120 min incubation with AT turned out to be 2.57 x.
